Measured values taken from publication PMC6069116.

Target: HrpG/HrpV complex from Erwinia amylovora, separately produced (Erwinia amylovora)
Test: SEC-MALS

In the case of “HrpJ from Erwinia amylovora, separately produced and purified (natural protein)”, the stoichiometry N (HrpG:HrpV:HrpJ) is reported as 1.
